Results taken from patent CN112375146A.

Target: FMC63 scFv, His Tag
Experiment: SPR; FMC63 scFv as analyte at 125, 62.5, 31.25, 15.625, 7.813, 3.906 and 1.953 nM

B1: Y45克隆号抗体 (antibody, V domains shown)
VH: EVKLLESGGGLVQPGGSLKLSCAASGDFRYFQWMSWVRQAPGKGLEWIGEIDNLDSITKYTPSLKDKFIISRDNAKNTLYLQMRKVRSEDTALYYCRAYRYMYDPRWGQGTSVTVSS
VL: DIVLTQSPASLAVSLGQRATISCRASKVSSTSSGYYMHWYQQKPGQPPKLLIYALNNLESGVPARFSGSGSGTDFTLNVHPVEEEDAATYYCQTFYGSELPFGSGTKLEIK
B1 was tested, and the Kd was 1.08 nM.
